The text below walks through data of EP3460067A1, “PROCESS FOR ENZYMATIC OXIDATION OF LINEAR CARBOHYDRATES” (Technische Universität München, priority 2017, dated 2019).

Series [1] concerns the target T1, SpsADH (Sphingomonas sp. A1, UniProt A0A075B5H4).
T1 sequence (A0A075B5H4 1-258): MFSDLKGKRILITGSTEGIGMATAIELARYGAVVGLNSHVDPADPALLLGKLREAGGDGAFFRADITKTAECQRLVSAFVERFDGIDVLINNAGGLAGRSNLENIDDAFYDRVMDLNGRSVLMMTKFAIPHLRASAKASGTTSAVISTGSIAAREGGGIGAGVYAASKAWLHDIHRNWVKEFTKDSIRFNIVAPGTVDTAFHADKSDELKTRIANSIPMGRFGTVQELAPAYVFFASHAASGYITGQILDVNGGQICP
Briefly: photometric SpsADH enzyme assay, oxidation of substrates (NAD+/NADH at 340 nm). The class given is biochemical, Sphingomonas species A1. As for the experimental part:
The activity of SpsADH was determined photometrically by monitoring the increase/decrease of NAD^+/NADH at 340 nm using the Infinite 200 pro photometer (Tecan Group Ltd.). Reactions were performed at 25 C in triplicate using 96-well microtiter plates. For determination of the substrate scope, the reaction mixtures contained 50 mM ammonium bicarbonate, pH 7.9, 0.3 mM NADH (or 1 mM NAD^+), a defined alcohol, aldehyde, aldonic acid or uronic acid as substrate and the purified enzyme. One unit of enzyme activity was defined as the amount of protein that reduces (oxidizes) 1 µmol of NAD(H)/min at […]. Calculation of Michaelis-Menten kinetics for determination of Km and vmax was done with Sigma-Plot 11.0 (Systat Software).

Substrate in series [2]: O=C(O)[C@H](O)[C@@H](O)[C@H](O)[C@H](O)CO
Briefly: purified protein, by the assay type. To be noted: other: oxidation of C5/C6 aldonates by SpsADH (Table 3); pH 7.9.

Substrate in series [3]: O=C(O)[C@H](O)[C@H](O)[C@H](O)[C@H](O)CO
Briefly: purified protein, by the assay type. To be noted: other: oxidation of C5/C6 aldonates by SpsADH (Table 3); pH 7.9.

Substrate in series [4]: O=C(O)[C@@H](O)[C@H](O)[C@H](O)[C@H](O)CO
The series is described as follows: purified protein, by the assay type. To be noted: other: oxidation of C5/C6 aldonates by SpsADH (Table 3); pH 7.9.

Substrate in series [5]: O=C(O)[C@@H](O)[C@@H](O)[C@H](O)[C@H](O)CO
The series is described as follows: purified protein, by the assay type. Particulars: other: oxidation of C5/C6 aldonates by SpsADH (Table 3); pH 7.9.

Substrate in series [6]: O=C(O)[C@H](O)[C@H](O)[C@H](O)CO
Briefly: photometric SpsADH enzyme assay, oxidation of substrates (NAD+/NADH at 340 nm). In kind it is biochemical, Sphingomonas species A1. To be noted: other: oxidation of C5/C6 aldonates by SpsADH (Table 3); pH 7.9.

Substrate in series [7]: O=C(O)C(=O)C[C@H](O)[C@H](O)CO
Described as above. To be noted: other: oxidation of KDG by SpsADH, 50 mM ammonium bicarbonate pH 7.9, NAD+, 25 C. In kind it is biochemical, Sphingomonas species A1.

Substrate in series [8]: O=C(O)[C@@H](O)[C@H](O)[C@H](O)CO
Described as above. The class given is biochemical, Sphingomonas species A1. Particulars: other: oxidation of C5/C6 aldonates by SpsADH (Table 3); pH 7.9.

For the molecule `O=C(O)C(=O)C[C@H](O)[C@H](O)CO` [KDG, 2-keto-3-deoxy-D-gluconate], the oxidative activity result in series [1] (native substrate KDG, result in words) is given as “very low oxidative activity”.

Turning to `OC[C@@H](O)[C@@H](O)[C@H](O)[C@@H](O)CO` [D-sorbitol], the activity in series [1] (oxidation by SpsADH, polyol) was 1.7 mU/mg. The molecule also returned a vmax in series [1] (oxidation of D-sorbitol to L-gulose by SpsADH) of 6.2 ± 0.1 mU/mg.

B1: SpsADH (Sphingomonas sp. A1) (protein)
chain: T1 sequence (A0A075B5H4 1-258)
What is called Km is the concentration of substrate that gives half-maximal velocity. Usually kcat stands for the maximal rate divided by the concentration of active sites. A word on the kcat/Km: it is the second-order rate constant that governs catalysis at low substrate concentration. Turning to B1, the Km in series [2] was 15.7 ± 1.6 mM; in series [3], 17.1 ± 2.4 mM; in series [4], 27.0 ± 4.2 mM; in series [5], 18.3 ± 1.3 mM; in series [6], 16.9 ± 1.4 mM; in series [7], 20.9 ± 3.16 mM. Also, the Km in series [8] is 25.6 ± 2.6 mM. Moreover, the Vmax in series [2] is reported as 1.28 ± 0.04 U/mg; in series [3], 0.28 ± 0.01 U/mg; in series [4], 0.32 ± 0.01 U/mg; in series [5], 0.52 ± 0.01 U/mg; in series [6], 0.01 ± 0.00 U/mg; in series [7] it was 1.81 ± 0.009 U/mg. Moreover, the Vmax in series [8] is given as 0.01 ± 0.00 U/mg. In addition, the catalytic constant (kcat) in series [2] was determined as 0.63 ± 0.02 s⁻¹; in series [3], 0.14 ± 0.01 s⁻¹; in series [4] it was 0.16 ± 0.01 s⁻¹; in series [5], 0.26 ± 0.00 s⁻¹; in series [6], 0.01 ± 0.00 s⁻¹; in series [7] it was 0.89 ± 0.047 s⁻¹. Besides, the kcat in series [8] was 0.01 ± 0.00 s⁻¹. The kcat/Km in series [2] was determined as 40.0 ± 5.4 M⁻¹ s⁻¹; in series [3], 8.1 ± 1.4 M⁻¹ s⁻¹; in series [4] it was 5.8 ± 1.2 M⁻¹ s⁻¹; in series [5], 13.9 ± 1.2 M⁻¹ s⁻¹; in series [6], 0.3 ± 0.1 M⁻¹ s⁻¹; in series [7], 42.5 ± 8.68 M⁻¹ s⁻¹. In series [8], the specificity constant (kcat/Km) stood at 0.2 ± 0.0 M⁻¹ s⁻¹.
